Patent US20030124132A1 (University of Texas, published 2003)

Legend:
[1] = test system: L540 human Hodgkin's disease tumors; experiment: Growth of L540 tumors after immunoglobulin-tTF conjugate and/or etoposide; assay type: in vivo, mice; settings: day 14
Experimental: (§1) The tumor test systems were: i) L540 human Hodgkin's disease tumors growing in SCID mice; ii) C1300 Muγ (interferon-secreting) neuroblastoma growing in nu/nu mice; iii) H460 human non-small cell lung carcinoma growing in nu/nu mice. To establish solid tumors, 1.5×10^7 tumor cells were injected subcutaneously into the right anterior flank of SCID or BALB/c nu/nu mice (Charles River Labs., Wilmingham, Mass.). When the tumors had grown to various diameters, mice were assigned to different experimental groups, each containing 4 to 9 mice.
(§2) Other mice received equivalent quantities of bispecific antibody alone. The injections were performed over ˜45 seconds into one of the tail veins, followed by 200 μl of saline. The infusions were repeated six days later. Perpendicular tumor diameters were measured at regular intervals and tumor volumes were calculated.
Mice bearing L540 human Hodgkin's disease tumors were treated with a complex of tTF219 and a bispecific antibody together with the anti-cancer drug, etoposide, at a conventional dose.

mouse endothelial cells = experiment: Cell based two stage coagulation assay after TNFα stimulation
Experimental: (§3) Mouse endothelial cells were seeded in 48 well tissue culture plates and allowed to adhere overnight. Cells were stimulated with TNFα at the following concentrations: 500 U/ml; 100 U/ml; 20 U/ml; 4 U/ml; 0.8 U/ml; 0.16 U/ml; and with medium only.
Endothelial cells were also tested for coagulant activity in a cell based two stage coagulation assay. After incubation with TNFα, cells were washed and incubated with coagulation factor mix (0.5 μg/ml factor VIIa in a mix containing 2.8 μg/ml factor IX, 3.4 μg/ml factor X, 50 μM phospholipids, in calcium buffer). The supernatant of wells was transferred into a 96 well ELISA plate. Substrate S2765 was added and Factor Xa generation measured.

[2] = test system: tissue factor on HUVEC cells; experiment: FACS analysis of tissue factor expression on endothelial cells; assay type: cell-based, human; settings: TNFα 500 U/ml, LPS 10 μg/ml, VEGF 1 nM, alone or in combination, 6 h
Experimental: To analyze tissue factor expression on the surface of endothelial cells, HUVEC cells were incubated with TNFα (500 U/ml), LPS (10 μg/ml) or vascular endothelial growth factor (VEGF, 1 nM) alone or in combination for 6 h at 37°. Cells were then detached and stained for surface expression of human tissue factor with a sheep-anti-human tissue factor antibody (Haemochrom, Essen, Germany) and an appropriate FITC-conjugated secondary antibody. Fluorescent cells were detected on a flow cytometer (Becton Dickinson, San Jose, Calif.).

bEnd 3 cells = experiment: Cell bound coagulation assay on stimulated endothelial cells (Factor Xa generation); assay type: cell-based, mouse
Experimental: (§4) To assay the coagulation induction of stimulated versus unstimulated endothelial cells, bend 3 cells were seeded in 48 well tissue culture plates at a density of 1×10^4 cells per well and allowed to adhere overnight. Cells were stimulated with endotoxin (0.5 μg/ml and 10 μg/ml) or TNFα (500 U/ml) for 4 h at 37° C. […] After incubation for 45 min at room temperature, cells were washed and incubated with various coagulation factor mixes as follows: (1) 0.5 μg/ml factor VIIa in a mix containing 2.8 μg/ml factor IX, 3.4 μg/ml factor X, 50 μM phospholipids, in calcium buffer (as specified above); (2) 0.01 μg/ml factor VIIa in a mix as in (1); (3) 2 μg/ml factor VII (Calbiochem-Novabiochem, San Diego, Calif.) in a mix as in (1); (4) 2 μg/ml factor VII. 0.01 μg/ml factor VIIa in a mix as in (1). The supernatant of wells was transferred into a 96 well ELISA plate. Substrate S2765 was added and Factor Xa generation measured alongside different concentrations of Factor Xa standard (7 nkatS2222; 0.7 nkatS2222; 0.07 nkatS2222). OD405 nm values were calculated as nkatS2222 Factor Xa from the Factor Xa standard curve.
as §4, with “bEnd” for “To assay the coagulation induction of stimulated versus unstimulated endothelial cells, bend”, “with” for “with various”, “mix” for “mixes”, “follows:” for “follows: (1)”, “buffer;” for “buffer (as specified above); (2) 0.01 μg/ml factor VIIa in a mix as in (1); (3) 2 μg/ml factor VII (Calbiochem-Novabiochem, San Diego, Calif.) in a mix as in (1); (4) 2 μg/ml factor VII. 0.01 μg/ml factor VIIa in a mix as in (1). The”

[3] = test system: VCAM-1 on mouse endothelial cells; experiment: VCAM-1 upregulation on endothelial cells by TNFα (FACS); assay type: cell-based
Experimental: as §3
Endothelial cells were then investigated for upregulation of the adhesion molecule VCAM-1 by fluorescence activated cell stain (FACS). To this end, cells were stained with an antibody against murine VCAM-1, followed by an appropriate FITC-conjugated secondary antibody. Fluorescent cells were detected on a flow cytometer (Becton Dickinson, San Jose, Calif.).

[4] = test system: C1300 mouse neuroblastoma vessels; experiment: In vivo tumor thrombosis by tTF, C1300; set-up: species or system BALB/c nu/nu mice
Excerpt: (§5) Tumor test systems were of four types: i) 3LL mouse lung carcinoma growing subcutaneously in C57BL/6 mice; ii) C1300 mouse neuroblastoma growing subcutaneously in BALB/c nu/nu mice; iii) HT29 human colorectal carcinoma growing subcutaneously in BALB/c nu/nu mice; and iv) C1300 Muγ mouse neuroblastoma growing subcutaneously in BALB/c nu/nu mice. The C1300 Muγ tumor is an interferon-γ secreting transfectant derived from the C1300 tumor (Watanabe et al., 1989).
(§6) To establish tumors, 10^6 to 1.5×10^7 tumor cells were injected subcutaneously into the right anterior flank of the mice. When tumors had grown to various sizes, mice were randomly assigned to different study groups. […] Fab′, or bispecific antibody. Other mice received equivalent quantities IgG, Fab′ or bispecific antibody alone. The injections were performed slowly into one of the tail veins over approximately 45 seconds, usually followed by 200 μl of saline.
(§7) Twenty-four hours after being injected with tTF or immunoglobulin-tTF conjugates, the mice were anesthetized with metophane and were exsanguinated by perfusion with heparinized saline. Tumors and normal tissues were excised and immediately fixed in 3% (v/v) formalin. Paraffin sections were cut and stained with hematoxylin and eosin. Blood vessels having open lumens containing erythrocytes and blood vessels containing thrombi were counted. […]

[5] = test system: A20 lymphoma cells (I-A^d positive), mouse or human plasma; experiment: In vitro coagulation assay on A20 cells with capture bispecific antibody B21-2/10H10; assay type: cell-based
[6] = test system: 3LL mouse lung carcinoma vessels; experiment: In vivo tumor thrombosis by tTF, 3LL; set-up: species or system C57BL/6 mice; settings: large (>800 mm^3) tumors
Excerpt: as §5, §6, §7

[7] = test system: H460 human lung carcinomas; experiment: Anti-tumor effects of tTF219 in H460 tumors; assay type: in vivo, nu/nu mice
Experimental: as §1, §2
In addition to the effects in mice bearing C1300 Muγ tumors, similar anti-tumor effects were observed using other tumor types. […] The second treatment with tTF219 was given when the tumors were larger (900 mm^3) and caused the tumors to regress to 550 mm^3 before regrowing.

[8] = test system: C1300 Muγ mouse neuroblastoma vessels; experiment: In vivo tumor thrombosis by tTF, C1300 Muγ; set-up: species or system BALB/c nu/nu mice
Excerpt: as §5, §6, §7

C1300 Muγ tumors = experiment: Anti-tumor effects of tTF and immunoglobulin-tTF in C1300 Muγ tumors; assay type: in vivo, nu/nu mice; settings: 300 mm^3 tumors
Experimental: as §1, §2
Mice bearing small (300 mm^3) C1300 Muγ tumors were injected intravenously with 16-20 μg tTF219. The treatment was repeated one week later. […] One week after the second treatment with tTF219, tumors were 60% of the size of tumors in mice receiving diluent alone. The greater effectiveness of the second injection probably derives from the greater thrombotic action of tTF219 on vessels in large tumors, observed above.
Mice bearing small (300 mm^3) subcutaneous C1300 Muγtumors were treated with tTF219 or with a complex of tTF219 and a bispecific antibody, OX7 Fab′/10H10 Fab′, not directed to a component of the tumor environment. The treatment was repeated 6 days later.

[9] = test system: HT29 human colorectal carcinomas; experiment: Anti-tumor effects of tTF219 in HT29 tumors; assay type: in vivo, Nu/nu mice; settings: large (1200 mm^3) tumors, i.v.
Experimental: Anti-tumor effects were also observed in mice bearing HT29 human colorectal carcinomas. Nu/nu mice bearing large (1200 mm^3) tumors on their flanks were injected intravenously with tTF219 or PBS (control), and growth of the tumors was monitored each day for 10 days. The tumors in the tTF219 treated mice discontinued growth for about 7 days after treatment, whereas the tumors in mice treated with PBS continued to grow unchecked.

[10] = test system: HT29 (human colorectal carcinoma) xenograft; experiment: Tumor necrosis by tTF constructs with Factor VIIa, HT29 xenograft; assay type: in vivo, BALB/c nu/nu mice; settings: single agents; 24 hours

## COc1cc([C@@H]2c3cc4c(cc3[C@@H](O[C@@H]3O[C@@H]5CO[C@@H](C)O[C@H]5[C@H](O)[C@H]3O)[C@H]3COC(=O)[C@H]23)OCO4)cc(OC)c1O [etoposide]
[1]
  average tumor volume: 1400 mm^3

## TNFα
Mouse endothelial cells
  TNFα at which an increase in coagulation versus negative control could be detected: 0.16 U/ml
  dose for coagulation increase lower than for VCAM-1 increase: 125 fold
[2]
  tissue factor expression on the surface of HUVEC: upregulated tissue factor expression
bEnd 3 cells; cells stimulated with TNFα (500 U/ml), then incubated with row agent (row Medium = stimulant alone), mix with 0.5 μg/ml factor VIIa
  Factor Xa generation: 0.35 nkats2222
bEnd 3 cells; cells stimulated with TNFα (row Medium = stimulant alone), mix with 2 μg/ml factor VII and 0.01 μg/ml factor VIIa
  Factor Xa generation due to Factor VIIa production: 1.23 nkats2222
[3]
  TNFα required for a measurable increase of VCAM-1 expression: 20 U/ml

B1: tTF219: residues 1-219 of TF plus an additional glycine at the N-terminus (protein)
chain: GSGTTNTVAAYNLTWKSTNFKTILEWEPKPVNQVYTVQISTKSGDWKSKCFYTTDTECDLTDEIVKDVKQTYLARVFSYPAGNVESTGSAGEPLYENSPEFTPYLETNLGQPTIQSFEQVGTKVNVTVEDERTLVRRNNTFLSLRDVFGKDLIYTLYYWKSSSSGKKTAKTNTNEFLIDVDKGENYCFSVQAVIPSRTVNRKSTDSPVECMGQEKGEFRE
[4]; large tumors (>1000 mm^3), 24 hours after injection
  tumor vessel thrombosis: virtually all vessels were thrombosed
[4]; small (<500 mm^3) tumors
  tumor vessel thrombosis: largely unaffected
[5]; 10^−10 M tTF219, 13.5 nM Factor VIIa
  plasma coagulation time: 20 s
[5]; 10^−10 M tTF219, absence of Factor VIIa
  plasma coagulation time: 60 s
[5]; presence of 0.1 nM Factor VIIa
  increase in coagulation-inducing potency: 2-5 fold
[5]; presence of 13.5 nM Factor VIIa
  enhancement in coagulation-inducing potency: ~100 fold
[6]
  tumor vessels thrombosed, average: 62%
[7]; first treatment, tumors 250 mm^3
  effect on growth rate: little effect on growth rate
[7]; second treatment, given at 900 mm^3
  tumor volume to which tumors regressed: 550 mm^3
[8]; 24 hours after injection
  tumor vessel thrombosis: practically all vessels in all regions of the tumor were thrombosed
[8]; small (<500 mm^3) tumors
  tumor vessel thrombosis: largely unaffected
C1300 Muγ tumors; 16-20 μg i.v., repeated one week later, one week after second treatment
  tumor size, of tumors in mice receiving diluent alone: 60%
C1300 Muγ tumors; treatment repeated 6 days later, fourteen days after the first injection
  tumor size, of controls receiving diluent alone: 75%
[9]
  time of discontinued tumor growth after treatment: about 7 days
[10]
  tumor necrosis: some necrosis
